Assay results from patent US20120064075.

Target: type IV collagen

B1: murine chimera FIXGla-Egf1FVIIa (protein)
chain: MKHLNTVMAESPALITIFLLGYLLSTECAVFLDRENATKILTRPKRYNSGKLEEFVRGNLERECIEERCSFEEAREVFENTEKTTEFWKQYVDGDQCESNPCLNGGICKDDISSYECWCQVGFEGRNCEFSKNEQLICANENGDCDQYCRDHVGTKRTCSCHEDYTLQPDEVSCKPKVEYPCGRIPVVEKRNSSSRQGRRKRRKRIVGGNVCPKGECPWQAVLKINGLLLCGAVLLDARWIVTAAHCFDNIRYWGNITVVMGEHDFSEKDGDEQVRRVTQVIMPDKYIRGKINHDIALLRLHRPVTFTDYVVPLCLPEKSFSENTLARIRFSRVSGWGQLLDRGATALELMSIEVPRLMTQDCLEHAKHSSNTPKITENMFCAGYMDGTKDACKGDSGGPHATHYHGTWYLTGVVSWGEGCAAIGHIGVYTRVSQYIDWLVRHMDSKLQVGVFRLPLL
ELISA measurements of expressed chimera in blood 10 minutes after a bolus of FIX: a 4-fold increase in the chimeric protein was measured
